In patent US20120009179A1 (Kyowa Kirin, published 2012):

What was measured:
[1] = target: T1, Aβ oligomers prepared from Amyloid β-protein, Human 1-42 peptide (human, UniProt P05067 672-713); assay: SPR (Biacore T100), Aβ oligomers amine-coupled on CM5 chip, antibody injected, Bivalent Analyte model (kd1/ka1)
T1 construct: domain: Amyloid β-protein, Human 1-42 peptide; Non-covalent oligomer of synthetic Aβ1-42; Immobilized on a CM5 chip by amine coupling; also called amyloid β protein oligomer
Protocol: (§1) All the following operations were performed using Biocore T100 (manufactured by GE Healthcare Bio-sciences). The Aβ oligomers obtained in (1) of Example 2 were immobilized to the CM5 sensor chip (GE Healthcare Bio-sciences) using the amine coupling method.
(§2) Onto the chip to which the Aβ oligomers were immobilized for measurement samples prepared to have 8 levels of density by diluting from 30 μg/mL by doubling dilution in a stepwise manner (HV0LV0, HV0LV2a, HV0LV4 and HV12LV4) was sequentially injected and measured in the order from the lower density based on the automatic program of the multi-kinetics.
(§3) Using the analysis software attached to the device, Biacore T100 Evaluation software (manufactured by Biacore Life Science), analysis was carried out with the Bivalent Analyte model to calculate the binding rate constant ka and the dissociation rate constant kd of each of the antibody against Aβ oligomers.

[2] = target: T1, Aβ oligomers prepared from Amyloid …; assay: SPR (Biacore T100), Aβ oligomers amine-coupled on CM5 chip, antibody injected, Bivalent Analyte model (kd1)
Protocol: as §1, §2, §3

[3] = target: T1, Aβ oligomers prepared from Amyloid …; assay: SPR (Biacore T100), Aβ oligomers amine-coupled on CM5 chip, antibody injected, Bivalent Analyte model (ka1)
Protocol: as §1, §2, §3

[4] = target: T2, Aβ monomers prepared from Biotin-beta-Amyloid, Human 1-40 (human, UniProt P05067 672-711, Biotin (position not stated; printed as "Biotin-beta-Amyloid, Human 1-40")); assay: SPR (Biacore T100), biotin-Aβ1-40 monomers captured on SA chip, antibody injected
T2 construct: domain: beta-Amyloid, Human 1-40; Captured on an SA sensor chip through biotin; also called amyloid β protein monomer
T2 sequence (P05067 672-711 limits assumed): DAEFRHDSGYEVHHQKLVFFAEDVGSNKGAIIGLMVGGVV
Protocol: In order to analyze the binding activity of the respective anti-Aβ oligomer humanized antibodies (HV0LV0, HV0LV2a, HV0LV4 and HV12LV4) against Aβ monomers, the binding activity was measured in the same manner as in (1) of this Example. In addition, the binding activity of anti-Aβ antibody 6E10 (manufactured by CONVANCE) was measured as a control antibody.
The Aβ monomers obtained in (2) of Example (2) were immobilized to the SA sensor chip (manufactured by GE Healthcare Bio-sciences) by the biotin capturing method. Onto the chip to which the Aβ monomers were immobilized, samples for measurement, which were prepared to have 5 levels of density by diluting from 30 μg/mL by doubling dilution in a stepwise manner (6E10, HV0LV0, HV0LV2a, HV0LV4 and HV12LV4), were sequentially injected and measured in the order from the lower density based on the automatic program of the multi-kinetics mode.

T1 sequence (P05067 672-713 limits assumed): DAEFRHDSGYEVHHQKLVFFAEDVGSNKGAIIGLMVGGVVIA

Binder	Kd [1]	koff [2]	kon [3]	binding result [4]
anti-Aβ oligomer humanized antibody HV0LV2a (antibody, V domains shown, also called 6E4HV0 + LV2a) VH: QVQLVQSGAEVKKPGASVKVSCKASGYTFTSYWMHWVRQAPGQGLEWMGEINPRNGGTNNNENFKRRVTITADTSTSTAYMELSSLRSEDTAVYYCARDGNYDPFAYWGQGTLVTVSS VL: DIVMTQSPLSLPVTPGEPASISCRSSQSLVHSNGNTYLHWYLQKPGQSPKLLIYKVSNRFSGVPDRFSGSGSGTDFTLKISRVEAEDVGVYFCSQSTHVPPYTFGQGTKLEIK	0.061 µM	0.00039 s⁻¹	6400 M⁻¹ s⁻¹	no binding (tested: 30 µg/mL highest of 5 two-fold dilutions)
anti-Aβ oligomer humanized antibody HV12LV4 (antibody, V domains shown) VH: QVQLVQSGAEVVKPGASVKLSCKASGYTFTSYWMHWVKLAPGQGFEWIGEINPRNGGTNNNENFKRKATLTVDKSTSTAYMELSSLRSEDTAVYYCTRDGNYDPFAYWGQGTLVTVSS VL: DVVMTQSPLSLPVTLGEPASISCRSSQSLVHSNGNTYLHWYLQKPGQSPKLLIYKVSNRFSGVPDRFSGSGSGTDFTLKISRVEAEDVGVYFCSQSTHVPPYTFGQGTKLEIK	0.3 µM	0.00081 s⁻¹	2700 M⁻¹ s⁻¹	no binding (tested: 30 µg/mL highest of 5 two-fold dilutions)
anti-Aβ oligomer humanized antibody HV0LV4 (antibody, V domains shown, also called 6E4HV0 + LV4) VH: QVQLVQSGAEVKKPGASVKVSCKASGYTFTSYWMHWVRQAPGQGLEWMGEINPRNGGTNNNENFKRRVTITADTSTSTAYMELSSLRSEDTAVYYCARDGNYDPFAYWGQGTLVTVSS VL: DVVMTQSPLSLPVTLGEPASISCRSSQSLVHSNGNTYLHWYLQKPGQSPKLLIYKVSNRFSGVPDRFSGSGSGTDFTLKISRVEAEDVGVYFCSQSTHVPPYTFGQGTKLEIK	0.071 µM	0.0005 s⁻¹	7000 M⁻¹ s⁻¹	no binding (tested: 30 µg/mL highest of 5 two-fold dilutions)
anti-Aβ oligomer humanized antibody HV0LV0 (antibody, V domains shown, Whole humanized antibody expressed from vector pKANTEX93 (WO 97/10354) with human constant regions; Produced in FUT8 knockout CHO/DG44 cells (no core fucose); also called 6E4HV0 + 6E4LV0) VH: QVQLVQSGAEVKKPGASVKVSCKASGYTFTSYWMHWVRQAPGQGLEWMGEINPRNGGTNNNENFKRRVTITADTSTSTAYMELSSLRSEDTAVYYCARDGNYDPFAYWGQGTLVTVSS VL: DIVMTQSPLSLPVTPGEPASISCRSSQSLVHSNGNTYLHWYLQKPGQSPQLLIYKVSNRFSGVPDRFSGSGSGTDFTLKISRVEAEDVGVYYCSQSTHVPPYTFGQGTKLEIK	0.04 µM	0.00069 s⁻¹	17000 M⁻¹ s⁻¹	no binding (tested: 30 µg/mL highest of 5 two-fold dilutions)
